Measurements as given in patent US20250236651A1.

How the values were obtained:
[1] = target: SPIDICOL1 (Spidroin-I/Collagen Type-I fusion protein) (Nephila clavipes; human)
[2] = target: FIB3COL1 (Fibroin-III/Collagen Type-I fusion protein) (Araneus diadematus; human)
[3] = target: native Bovine Collagen Type I (Thermo Fisher) (bovine) (UniProt P02453)
[4] = target: SPIDICOL1 (Spidroin-I/Collagen Type-I fusion protein) (Nephila clavipes; human); remark: listed apart in the source
[5] = target: FIB3COL1 (Fibroin-III/Collagen Type-I fusion protein) (Araneus diadematus; human); remark: listed apart in the source

Molecule | degradation of the electrospun scaffold (mass over time) [1] [h] | degradation of the electrospun scaffold (mass over time) [2] [h] | degradation of the electrospun scaffold (mass over time) [3] [h] | hydroxylysine content (amino acid analysis) [4] [fold] | hydroxylysine content (amino acid analysis) [5] [fold]
collagenase (enzyme) | 96 | 100 | 64 |  | 
Lysin Hydroxylase 3 (LH3), exogenous human (enzyme) SDRPRGRDPVNPEKLLVITVATAETEGYLRFLRSAEFFNYTVRTLGLGEEWRGGDVARTVGGGQKVRWLKKEMEKYADREDMIIMFVDSYDVILAGSPTELLKKFVQSGSRLLFSAESFCWPEWGLAEQYPEVGTGKRFLNSGGFIGFATTIHQIVRQWKYKDDDDDQLFYTRLYLDPGLREKLSLNLDHKSRIFQNLNGALDEVVLKFDRNRVRIRNVAYDTLPIVVHGNGPTKLQLNYTYPEHERELGNYVPNGWTPEGGCGFCNQDRRTLPGGQPPPRVFLAVFVEQPTPFLPRFLQRLLLLDYPPDRVTLFLHNNEVFHEPHIADSWPQLQDHFSAVKLVGPEEALSPGEARDMAMDLCRQDPECEFYFSLDADAVLTNLQTLRILIEENRKVIAPMLSRHGKLWSNFWGALSPDEYYARSEDYVELVQRKRVGVWNVPYISQAYVIRGDTLRMELPQRDVFSGSDTDPDMAFCKSFRDKGIFLHLSNQHEFGRLLATSRYDTEHLHPDLWQIFDNPVDWKEQYIHENYSRALEGEGIVEQPCPDVYWFPLLSEQMCDELVAEMEHYGQWSGGRHEDSRLAGGYENVPTVDIHMKQVGYEDQWLQLLRTYVGPMTESLFPGYHTKARAVMNFVVRYRPDEQPSLRPHHDSSTFTLNVALNHKGLDYEGGGCRFLRYDCVISSPRKGWALLHPGRLTHYHEGLPTTWGTRYIMVSFVDP |  |  |  | 36 | 39
